For one data set, the target named is T1, MG103-6 (uncultivated organism).
T1 chain: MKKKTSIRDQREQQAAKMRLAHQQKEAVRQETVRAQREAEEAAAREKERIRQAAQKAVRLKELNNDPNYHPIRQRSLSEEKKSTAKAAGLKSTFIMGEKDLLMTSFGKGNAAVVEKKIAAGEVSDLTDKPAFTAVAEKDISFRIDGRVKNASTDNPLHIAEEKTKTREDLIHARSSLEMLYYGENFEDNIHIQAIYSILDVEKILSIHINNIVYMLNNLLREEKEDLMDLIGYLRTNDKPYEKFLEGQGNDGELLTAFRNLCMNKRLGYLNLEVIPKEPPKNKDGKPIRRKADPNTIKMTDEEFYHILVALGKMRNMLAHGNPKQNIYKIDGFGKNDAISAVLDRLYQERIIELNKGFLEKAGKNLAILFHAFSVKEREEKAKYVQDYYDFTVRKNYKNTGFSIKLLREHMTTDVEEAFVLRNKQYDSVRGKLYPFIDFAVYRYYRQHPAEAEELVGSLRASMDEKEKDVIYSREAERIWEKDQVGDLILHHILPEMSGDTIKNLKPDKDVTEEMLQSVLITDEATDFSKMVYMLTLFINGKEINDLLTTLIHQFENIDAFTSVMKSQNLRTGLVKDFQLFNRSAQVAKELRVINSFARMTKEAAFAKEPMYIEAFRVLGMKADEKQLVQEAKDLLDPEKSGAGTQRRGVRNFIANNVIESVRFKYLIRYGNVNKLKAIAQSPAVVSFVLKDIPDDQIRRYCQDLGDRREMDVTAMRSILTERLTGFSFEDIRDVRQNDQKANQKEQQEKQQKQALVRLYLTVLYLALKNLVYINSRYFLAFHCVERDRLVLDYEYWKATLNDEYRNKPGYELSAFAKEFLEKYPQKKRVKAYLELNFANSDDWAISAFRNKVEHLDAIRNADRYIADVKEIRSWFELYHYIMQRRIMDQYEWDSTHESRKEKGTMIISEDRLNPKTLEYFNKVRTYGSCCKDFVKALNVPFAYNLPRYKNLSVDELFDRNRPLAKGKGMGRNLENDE
Briefly: crRNA processing by RNAseq: 6 nt trimmed from 5' of repeat, 30 nt repeat, 21 and 26 nt spacers. How it is done: (§1) RNA was extracted from PURExpress cell lysate expressions following the Quick-RNA™ Miniprep Kit (Zymo Research) and eluted in 30-50 μL of water. 5′ ends of the processed crRNA were mono-phosphorylated with 10 units of T4 Polynucleotide Kinase, 40 units of Murine RNase Inhibitor, and 1X of T4 DNA Ligase Buffer (NEB Inc.) in 25-50 μL reactions. Following a 30-minute incubation at 37° C., reactions were stopped with column purification using Monarch® RNA Cleanup Kit ([…]) (NEB Inc.). The total concentration of the transcripts were measured on a Nanodrop, Tapestation, and Qubit.
(§2) 100ng-1pg of total RNA from each sample were prepped for RNA sequencing using the NEBNext Small RNA Library Prep Set for Illumina (NEB Inc.). Amplicons between 150-300 bp were quantified by Tapestation and Qubit and pooled to a concentration of 4 nM. A concentration of […] was loaded into a MiSeq V3 kit and sequenced in a Miseq system (Illumina) for 176 total cycles. The RNAseq reads were used to identify the processed crRNA sequences. Illumina adapters were removed from all reads using fastp (see e.g., Bioinformatics 2018, 34 (17), i884-i890, which is incorporated by reference herein in its entirety). […]

The next data set deals with T2, MG103-12 (uncultivated organism).
T2 chain: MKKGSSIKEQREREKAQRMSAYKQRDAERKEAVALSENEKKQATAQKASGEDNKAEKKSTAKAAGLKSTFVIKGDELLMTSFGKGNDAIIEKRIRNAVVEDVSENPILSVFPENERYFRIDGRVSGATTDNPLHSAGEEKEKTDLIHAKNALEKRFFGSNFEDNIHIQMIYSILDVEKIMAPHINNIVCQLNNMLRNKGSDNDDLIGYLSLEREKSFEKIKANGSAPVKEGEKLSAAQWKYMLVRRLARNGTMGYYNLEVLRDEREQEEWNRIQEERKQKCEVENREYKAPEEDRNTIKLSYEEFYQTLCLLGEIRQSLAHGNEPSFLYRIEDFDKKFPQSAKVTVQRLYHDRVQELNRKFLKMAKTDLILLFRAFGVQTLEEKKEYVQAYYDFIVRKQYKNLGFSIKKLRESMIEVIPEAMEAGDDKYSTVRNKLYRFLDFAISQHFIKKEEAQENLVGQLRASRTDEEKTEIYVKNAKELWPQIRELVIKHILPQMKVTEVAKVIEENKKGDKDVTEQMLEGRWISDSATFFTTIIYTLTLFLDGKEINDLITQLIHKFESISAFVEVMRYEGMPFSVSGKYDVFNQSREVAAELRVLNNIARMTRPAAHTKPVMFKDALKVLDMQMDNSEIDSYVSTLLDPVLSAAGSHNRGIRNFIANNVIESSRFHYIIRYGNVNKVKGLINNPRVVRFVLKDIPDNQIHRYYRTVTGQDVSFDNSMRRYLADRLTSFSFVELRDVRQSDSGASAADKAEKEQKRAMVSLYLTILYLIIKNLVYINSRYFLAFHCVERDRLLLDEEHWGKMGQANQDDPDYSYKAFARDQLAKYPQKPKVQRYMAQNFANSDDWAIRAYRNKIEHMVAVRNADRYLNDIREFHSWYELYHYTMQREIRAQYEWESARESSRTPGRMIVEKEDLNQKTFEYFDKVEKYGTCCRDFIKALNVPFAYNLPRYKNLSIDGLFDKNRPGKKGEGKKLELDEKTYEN
Briefly: crRNA processing by RNAseq: 30 nt repeat, 21 nt spacer. As for the experimental part: as §1, §2

For a further data set, the target named is T3, MG105-1 (uncultivated organism).
T3 chain: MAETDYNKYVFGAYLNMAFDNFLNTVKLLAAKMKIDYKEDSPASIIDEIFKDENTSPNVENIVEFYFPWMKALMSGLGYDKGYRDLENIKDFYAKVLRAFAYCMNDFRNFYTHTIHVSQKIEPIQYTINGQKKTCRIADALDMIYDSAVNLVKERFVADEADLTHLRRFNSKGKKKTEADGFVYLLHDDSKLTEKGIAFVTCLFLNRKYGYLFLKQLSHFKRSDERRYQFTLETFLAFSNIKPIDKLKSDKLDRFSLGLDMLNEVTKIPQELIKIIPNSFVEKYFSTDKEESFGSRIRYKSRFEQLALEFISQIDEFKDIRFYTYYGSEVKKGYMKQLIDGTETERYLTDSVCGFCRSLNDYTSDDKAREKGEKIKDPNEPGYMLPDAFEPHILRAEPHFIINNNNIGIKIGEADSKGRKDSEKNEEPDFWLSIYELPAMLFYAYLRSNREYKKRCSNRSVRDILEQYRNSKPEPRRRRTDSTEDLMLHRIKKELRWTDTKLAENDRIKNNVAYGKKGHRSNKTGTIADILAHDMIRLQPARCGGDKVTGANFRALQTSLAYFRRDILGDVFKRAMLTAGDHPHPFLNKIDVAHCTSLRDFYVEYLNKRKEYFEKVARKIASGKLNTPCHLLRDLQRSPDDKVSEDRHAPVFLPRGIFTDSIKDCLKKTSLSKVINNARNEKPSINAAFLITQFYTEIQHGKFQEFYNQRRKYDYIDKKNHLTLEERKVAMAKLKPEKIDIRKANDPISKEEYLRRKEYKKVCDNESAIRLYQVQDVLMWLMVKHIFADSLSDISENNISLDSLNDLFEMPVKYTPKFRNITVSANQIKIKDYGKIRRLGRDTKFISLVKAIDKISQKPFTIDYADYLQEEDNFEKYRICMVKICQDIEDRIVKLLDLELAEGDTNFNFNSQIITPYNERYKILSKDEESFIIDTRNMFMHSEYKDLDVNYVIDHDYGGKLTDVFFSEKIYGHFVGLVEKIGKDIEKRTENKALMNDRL
Briefly: crRNA processing: 10 nt trimmed 5' of spacer, 36 nt repeat retained; spacer 5' of repeat. As for the experimental part:
as §1, §2

B1: 103-6_MA_30_REV array (ssRNA)
RNA: GGAACUACACCCUUACGAACUCGUAGGGGUCUGAAACCCGUCCAGCUCGACCAGGAUGGGAACAACGGAACUACACCCUUACGAACUCGUAGGGGUCUGAAACAGGCUAGGUGGAGGCUCAGUG
For the molecule B1, the binding result with MG103-6 is “binds”.

B2: 103-12_MA_30_FWD array (ssRNA)
RNA: GGAACUACACCCUUACCGAUUGGUAAGGGUCUGAAACCCGUCCAGCUCGACCAGGAUGGGAACAACGGAACUACACCCUUACCGAUUGGUAAGGGUCUGAAACAGGCUAGGUGGAGGCUCAGUG
Turning to B2, in the data set with MG103-12, the binding result was “binds”.

B3: 105-1_MA_30_REV array (ssRNA)
RNA: GGUUGUAACAGCCUUUAGUUUGUAAGGUAAAAACAACCCGUCCAGCUCGACCAGGAUGGGAACAACGGUUGUAACAGCCUUUAGUUUGUAAGGUAAAAACAACAGGCUAGGUGGAGGCUCAGUG
Consider B3, for which, in the data set with MG105-1, the binding result is listed as “binds”.

The values above are taken from US20240352433, “ENZYMES WITH HEPN DOMAINS” (Metagenomi, Inc., published 2024).
